Measurements as given in US20250277013A1 (published 2025).

T1: Neuroligin-4, X-linked (NLGN4X) peptide on HLA-A*02:01 (human)
T1 peptide: NLDTLMTYV

T2: Protein Tyrosine Phosphatase Receptor Type Z1 (PTPRZ1) peptide on HLA-A*02:01 (human)
T2 peptide: MIWEHNVEV

B1: NLGN4X(131-139)-specific TCR (TCR, V domains shown)
Valpha: RKEVEQDPGPFNVPEGATVAFNCTYSNSASQSFFWYRQDCRKEPKLLMSVYSSGNEDGRFTAQLNRASQYISLLIRDSKLSDSATYLCVVTDSGNTGKLIFGQGTTLQVKP
Vbeta: GAVVSQHPSWVICKSGTSVKIECRSLDFQATTMFWYRQFPKQSLMLMATSNEGSKATYEQGVEKDKFLINHASLTLSTLTVTSAHPEDSSFYICSARVDYNEQFFGPGTRLTVL
B2: PTPRZ1(1814-1822)-specific TCR (TCR, V domains shown)
Valpha: AQSVTQLDSQVPVFEEAPVELRCNYSSSVSVYLFWYVQYPNQGLQLLLKYLSGSTLVKGINGFEAEFNKSQTSFHLRKPSVHISDTAEYFCAVSDRGAGNMLTFGGGTRLMVKP
Vbeta: GAGVSQSPSNKVTEKGKDVELRCDPISGHTALYWYRQSLGQGLEFLIYFQGNSAPDKSGLPSDRFSAERTGGSVSTLTIQRTQQEDSAVYLCASSLGLAGGLAGELFFGEGSRLTVL

Experiments:
[1] = target: T1, Neuroligin-4, X-linked (NLGN4X) peptide …; test: multimer staining
[2] = target: T2, Protein Tyrosine Phosphatase Receptor …; test: multimer staining

Binder | binding result [1] | binding result [2]
B1 | recognises | –
B2 | – | recognises
